How the values were obtained:
[1] = biological target: the molecule itself; assay: cryo-EM structure; JN241-9-APJR complex, APJR and JN241-9 co-expressed in Hi5 cells (1:1 virus ratio), co-purified without added ligand; no Gi
[2] = biological target: T1, human WT APJR (apelin receptor), cryo-EM construct with a deletion of 50 residues from the C-terminus (human, UniProt P35414); assay: cryo-EM structure; purified APJR (LMNG/CHS) incubated 1 h at 4 °C with 125 µg JN241(-Fc), SEC in 20 mM HEPES pH 7.5, 100 mM NaCl; no Gi; settings: both partners purified
T1 construct: The N-terminal fusion is HA signal peptide, Flag tag, 10x His tag and BRIL, in pFastBac1; No cleavage of the fusion is mentioned; The protein is seen both as a monomer and as a homodimer; also called ProtA; ProtB; source: Trichoplusia ni (Hi5) insect cells, baculovirus; alone or co-expressed with Gi and/or JN241-9; purified (LMNG/CHS, Talon resin, SEC); not shown: His10, N-terminal, kept

[3] = biological target: T1, human WT APJR (apelin receptor), …; assay: cryo-EM 2D classification; JN241-APJR complex with the Fc tag removed from the sdAb; data quality insufficient for a high-resolution structure; settings: both partners purified

B1: human WT APJR (apelin receptor), cryo-EM construct with a deletion of 50 residues from the C-terminus (receptor, UniProt P35414 1-330, looked up)
chain: MEEGGDFDNYYGADNQSECEYTDWKSSGALIPAIYMLVFLLGTTGNGLVLWTVFRSSREKRRSADIFIASLAVADLTFVVTLPLWATYTYRDYDWPFGTFFCKLSSYLIFVNMYASVFCLTGLSFDRYLAIVRPVANARLRLRVSGAVATAVLWVLAALLAMPVMVLRTTGDLENTTKVQCYMDYSMVATVSSEWAWEVGLGVSSTTVGFVVPFTIMLTCYFFIAQTIAGHFRKERIEGLRKRRRLLSIIVVLVVTFALCWMPYHLVKTLYMLGSLLHWPCDFDLFLMNIFPYCTCISYVNSCLNPFLYAFFDPRFRQACTSMLCCGQSR
notes: The N-terminal fusion is HA signal peptide, Flag tag, 10x His tag and BRIL, in pFastBac1; No cleavage of the fusion is mentioned; The protein is seen both as a monomer and as a homodimer; also called ProtA; ProtB; source: Trichoplusia ni (Hi5) insect cells, baculovirus; alone or co-expressed with Gi and/or JN241-9; purified (LMNG/CHS, Talon resin, SEC); not shown: His10, N-terminal, kept
- binding result [1]: binds

B2: JN241-Fc, antagonistic single-domain antibody (sdAb) JN241 with Fc tag (VHH)
VHH: QVQLVESGGGSVQSGGSLTLSCAASGSTYSSHCMGWFRQAPGKEREGVALMTRSRGTSYADSVKGRFTISQDNTKNILYLQMNSLKPEDTAMYYCAAVPRAGIESGAYCKWNMKDSGSWGQGTQVTVSS
notes: the model of the JN241-APJR complex deposited here (PDB 8XQJ) holds this chain; also called antagonistic antibody; sdAb antagonist; source: provided by Structure Therapeutics
- binding result [2]: binds

B3: JN241 with the Fc tag removed (VHH)
VHH: QVQLVESGGGSVQSGGSLTLSCAASGSTYSSHCMGWFRQAPGKEREGVALMTRSRGTSYADSVKGRFTISQDNTKNILYLQMNSLKPEDTAMYYCAAVPRAGIESGAYCKWNMKDSGSWGQGTQVTVSS
notes: as the VHH of m4; PDB 8XQJ holds the JN241 chain; also called sdAb; source: Fc tag removed
- binding result [3]: binds
